Source: patent US20170002094A1 (Takeda / Millennium, published 2017)
Like-named read-outs stand apart in the source and are kept apart here.

What was measured:
[1] = target: T1, human plasma kallikrein (active form) (human, UniProt P03952 20-638)
[2] = target: T1, human plasma kallikrein (active form); assay: cell-based or functional assay

T1 sequence (P03952 20-638 limits assumed): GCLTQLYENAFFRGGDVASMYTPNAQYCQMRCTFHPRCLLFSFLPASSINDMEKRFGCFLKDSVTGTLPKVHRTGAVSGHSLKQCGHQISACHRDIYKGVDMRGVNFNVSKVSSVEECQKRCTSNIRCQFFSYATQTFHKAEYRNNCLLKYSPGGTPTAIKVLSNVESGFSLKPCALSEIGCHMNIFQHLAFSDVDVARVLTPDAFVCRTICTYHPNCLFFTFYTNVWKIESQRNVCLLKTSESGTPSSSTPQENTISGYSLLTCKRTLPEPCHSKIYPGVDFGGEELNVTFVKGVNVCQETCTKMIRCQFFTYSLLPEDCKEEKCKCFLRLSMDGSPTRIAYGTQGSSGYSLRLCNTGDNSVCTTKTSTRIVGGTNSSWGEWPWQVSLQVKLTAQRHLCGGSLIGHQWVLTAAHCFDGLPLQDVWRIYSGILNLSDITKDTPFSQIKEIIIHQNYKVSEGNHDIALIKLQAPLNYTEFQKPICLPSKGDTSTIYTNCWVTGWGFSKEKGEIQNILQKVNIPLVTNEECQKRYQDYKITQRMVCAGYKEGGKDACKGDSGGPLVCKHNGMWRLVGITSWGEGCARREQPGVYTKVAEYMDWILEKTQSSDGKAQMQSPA

Work on ecallantide (designed binder) yielded an IC50 (read off the curve) [1] of 70 nM.

B1: DX-2930 (antibody, human IgG1, kappa, V domains shown)
VH: EVQLLESGGGLVQPGGSLRLSCAASGFTFSHYIMMWVRQAPGKGLEWVSGIYSSGGITVYADSVKGRFTISRDNSKNTLYLQMNSLRAEDTAVYYCAYRRIGVPRRDEFDIWGQGTMVTVSS
VL: DIQMTQSPSTLSASVGDRVTITCRASQSISSWLAWYQQKPGKAPKLLIYKASTLESGVPSRFSGSGSGTEFTLTISSLQPDDFATYYCQQYNTYWTFGQGTKVEIKR
For B1, the “IC50 (read off the curve)” value [2] was about 70 nM.
